The values below come from patent US20030077226.

Series [1] has as its target T1, synthetic peptide substrate containing the Swedish KM→NL mutation (SEVNLDAEFR).
T1 chain: SEVNLDAEFR

Series [2] addresses T2, synthetic peptide substrate containing the wild-type APP β-secretase site (SEVKMDAEFR).
T2 chain: SEVKMDAEFR

B1: Recombinant human Asp2(a) prepared in CHO cells (protein)
chain: ETDEEPEEPGRRGSFVEMVDNLRGKSGQGYYVEMTVGSPPQTLNILVDTGSSNFAVGAAPHPFLHRYYQRQLSSTYRDLRKGVYVPYTQGKWEGELGTDLVSIPHGPNVTVRANIAAITESDKFFINGSNWEGILGLAYAEIARPDDSLEPFFDSLVKQTHVPNLFSLHLCGAGFPLNQSEVLASVGGSMIIGGIDHSLYTGSLWYTPIRREWYYEVIIVRVEINGQDLKMDCKEYNYDKSIVDSGTTNLRLPKKVFEAAVKSIKAASSTEKFPDGFWLGEQLVCWQAGTTPWNIFPVISLYLMGEVTNQSFRITILPQQYLRPVEDVATSQDDCYKFAISQSSTGTVMGAVIMEGFYVVFDRARKRIGFAVSACHVHDEFRTAAVEGPFVTLDMEDCGYNIPQTDESTLMTIAYVMAAICALFMLPLCLMVCQWRCLRCLRQQHDDFADDISLLK
For B1, the “proteolysis of peptide substrate (percent hydrolysis by RP-HPLC), Swedish peptide against wild type after 6 hours” value in series [1] is recorded as “about 10-fold higher than wild type APP”. Besides, the “proteolysis of peptide substrate (percent hydrolysis by RP-HPLC)” value in series [2] was “Maximal proteolysis was seen with the Swedigh β-secretase peptide, which, after 6 hours, was about 10-fold higher than wild type APP”.

B2: Hu-Asp2(b) expressed in CHO cells (protein)
chain: TQHGIRLPLRSGLGGAPLGLRLPRETDEEPEEPGRRGSFVEMVDNLRGKSGQGYYVEMTVGSPPQTLNILVDTGSSNFAVGAAPHPFLHRYYQRQLSSTYRDLRKGVYVPYTQGKWEGELGTDLVSIPHGPNVTVRANIAAITESDKFFINGSNWEGILGLAYAEIARLCGAGFPLNQSEVLASVGGSMIIGGIDHSLYTGSLWYTPIRREWYYEVIIVRVEINGQDLKMDCKEYNYDKSIVDSGTTNLRLPKKVFEAAVKSIKAASSTEKFPDGFWLGEQLVCWQAGTTPWNIFPVISLYLMGEVTNQSFRITILPQQYLRPVEDVATSQDDCYKFAISQSSTGTVMGAVIMEGFYVVFDRARKRIGFAVSACHVHDEFRTAAVEGPFVTLDMEDCGYNIPQTDESTLMTIAYVMAAICALFMLPLCLMVCQWRCLRCLRQQHDDFADDISLLK
With B2, the “proteolysis of peptide substrate (RP-HPLC)” value in series [1] is “also cleaves the Swedish β-secretase peptide in proteolysis assays using identical assay conditions”.
